Reference: US9200265B2, “Anti-cocaine compositions and treatment” (priority 2006, dated 2015)

Tests used:
[1] = test system: cocaine-induced lethality; assay: Cocaine toxicity in mice, incl. repeated CocE doses; type: in vivo, mouse
From the text: The animal toxicity model was similar to that described previously, except as described. Male NIH Swiss mice were used. For tail intravenous injection, mice are placed in a small restraint chamber that exposes their tail. A heat lamp with an infrared, 250 w bulb is placed about 4 inches from the tail, and left for a couple of minutes. The tail is then cleansed with an alcohol wipe and a 30 G ½ precision glide needle (Fisher Scientific), is inserted into one of the side veins for infusion. To verify whether the needle is in the vein a small amount of drug is infused, if in the correct location the solution should infuse easily without any indication of an incorrect subcutaneous location, which appears white at the site of injection. For intravenous catheterization, Male NIH Swiss mice are anesthetized with ketamine 100 mg/kg and xylazine 10 mg/kg co-administered i.p. When mice are no longer responsive to paw pressure, the neck is shaved and prepped by alternating Betadine and alcohol wipes. Under clean conditions, a right transverse neck incision is made and the external jugular vein is isolated. A catheter is inserted into the vein with the aid of a dissecting microscope to the level of the right atrium, and is secured in the vein with nylon, 4-0 sutures and tissue adhesive, 3M Vetbond (3M Animal Care Products, St. Paul, Minn.). The catheters are a short length of Tygon tubing with an inner diameter of 0.010 in. and an outer diameter of 0.030 in. (Small Parts, Inc., Miami Lakes, Fla.). A small incision is made in the middle of the animal's back, and a trocar inserted subcutaneously to exit at the ventral incision site. The catheter is then pulled through the trocar and brought out the animal's back where it is held in place with nylon suture material and the tissue adhesive. A short piece of steel wire with a diameter of 0.011 in. (Small Parts, Inc., Miami Lakes, Fla.) is inserted into the end of the catheter. The ventral incision is closed with 4-0 Vicryl suture material and the mouse placed under a heat lamp for recovery. Approximately an hour later, the mouse is returned to its home cage.
Mice that survived a first administration of the combination of 0.32 mg CocE and 320 mg/kg cocaine were given this combination again, 14 days following the initial administration.

[2] = Half-life of CocE in rat plasma; type: in vitro ADME
Procedure: CocE's protective effects were eliminated when rats were treated 100 min prior to cocaine. This time-dependent effect is most likely due to the thermal deactivation of the enzyme in vivo.

[3] = Ex vivo cocaine degradation by CocE in human plasma (HPLC tandem MS)
[4] = test system: cocaine-induced lethality; assay: Rodent model of acute cocaine toxicity (convulsions and lethality) in rats; conditions: for protection against cocaine-induced lethality: one minute before 180 mg/kg cocaine
[5] = 1.0 mg i.v. one minute after cocaine i.p., rats

B1: CocE: wild-type cocaine esterase of Rhodococcus sp. MB 1, SEQ ID NO: 1, Accession No. AF173165 (protein)
chain: MVDGNYSVASNVMVPMRDGVRLAVDLYRPDADGPVPVLLVRNPYDKFDVFAWSTQSTNWLEFVRDGYAVVIQDTRGLFASEGEFVPHVDDEADAEDTLSWILEQAWCDGNVGMFGVSYLGVTQWQAAVSGVGGLKAIAPSMASADLYRAPWYGPGGALSVEALLGWSALIGTGLITSRSDARPEDAADFVQLAAILNDVAGAASVTPLAEQPLLGRLIPWVIDQVVDHPDNDESWQSISLFERLGGLATPALITAGWYDGFVGESLRTFVAVKDNADARLVVGPWSHSNLTGRNADRKFGIAATYPIQEATTMHKAFFDRHLRGETDALAGVPKVRLFVMGIDEWRDETDWPLPDTAYTPFYLGGSGAANTSTGGGTLSTSISGTESADTYLYDPADPVPSLGGTLLFHNGDNGPADQRPIHDRDDVLCYSTEVLTDPVEVTGTVSARLFVSSSAVDTDFTAKLVDVFPDGRAIALCDGIVRMRYRETLVNPTLIEAGEIYEVAIDMLATSNVFLPGHRIMVQVSSSNFPKYDRNSNTGGVIAREQLEEMCTAVNRIHRGPEHPSHIVLPIIKR
modifications: Rhodococcus sp. MB1
survival on second administration ([1]; 0.32 mg CocE and 320 mg/kg cocaine, 14 days following the initial administration): All of the mice survived
survival on third administration ([1]; 0.32 mg CocE and 320 mg/kg cocaine, 21 days following the first dose): All mice also survived
time to death (average) ([1]; 1.0 gm/kg cocaine plus 1.0 mg of CocE, mice): 28 min
shift in the potency of cocaine in producing death ([1]; both 0.32 and 1.O 'mg/kg cocaine' as printed, mice): dramatic shift to the right
half-life [2]: about 10 minutes
decrease of cocaine levels compared with vehicle-treated plasma ([3]; human plasma 37° C., 300 μM cocaine, 0.05 mg/ml CocE, within 1 min): at least 100 fold
cocaine level after esterase ([3]; human plasma 37° C., 300 μM cocaine, 2-minute timepoint): below 1 microM
cocaine concentration after esterase ([3]; human plasma 37° C., 300 μM cocaine, within 1 min): approximately 2 μM
cocaine concentrations in serum metabolized ([3]; in less than one minute (FIG. 15)): 150 fold
protection against cocaine-induced lethality ([4]; 0.1 mg): no protection
lethality ([4]; 0.32 mg i.v. one minute after 1 g/kg cocaine i.p., rats): 100%
rats saved ([4]; 1 mg CocE 1 minute before cocaine (100 mg/kg)): 100%
rats survived ([4]; 1 mg CocE 30 minutes before cocaine (100 mg/kg)): 66%
protective effects ([4]; 1 mg CocE 100 min prior to cocaine): eliminated
rats survived ([4]; 1 mg CocE '1 minutes' before cocaine as printed (100 mg/kg)): 32%
time after the LD100 dose of cocaine at which the enzyme provided protection ([4]; 1 mg CocE, 100 mg/kg cocaine): up to 6 minutes
cocaine dose required to surmount the protective properties [4, 5]: 1000 mg/kg
shift in the cocaine-toxicity dose effect curve [4, 5]: ten-fold shift
protection against cocaine-induced lethality ([4]; 1 mg): 100%
duration of anti-cocaine effect ([4]; preliminary studies in rats): more than 30 minutes
